# Changes are numbered by the printed parent chain.
# B1: FW1_var10_NEKS (antibody, human IgG4, V domains shown)
# VH: QVQLVQSGAEVKKPGASVKVSCKASGYTFTSYWMHWVRQAPGQGLEWMGETNPSNSVTNYNEKFKSRVTLTVDTSTSTAYMELSSLRSEDTATYYCTIGRGRGFAYWGQGTLVTVSS
# VL: DIQMTQSPSSVSASVGDRVTITCRASQNINFWLSWYQQKPGKAPKLLIYKASNLHTGVPSRFSGSGSGTDFTLTISSLQPEDFATYYCLQGQSYPYTFGGGTKLEIK
# B2: FW1_var14_NEKS (antibody, human IgG4, V domains shown)
# VH: B1 VH
# VL: B1 VL with K45R
# B3: FW1_var1 antibody (antibody, V domains shown)
# VH: B1 VH with N61A, E62Q, K65Q, S66G, T93V
# VL: B1 VL with Y36C, A43I
# B4: mouse parent antibody IGF11-16 (antibody, mouse IgG1, kappa, V domains shown)
# VH: QIQLQQPGAELVKPGASVKLSCKAPGYTFTSYWMHWVKQRPGQGLEWIGETNPSNSVTNYNEKFKSKATLTVDKSSSTAYMQLSSLTSEDSAVYYCTIGRGRGFAYWGQGTLVTVSA
# VL: DIQMNQSPSSLSASLGDTITITCRASQNINFWLSWCQQKPGNIPKLLIYKASNLHTGVPSRFSGSGSGTDFTLTISSLQPEDIATYYCLQGQSYPYTFGGGTKLEIKR
# B5: FW1_var9 antibody (antibody, V domains shown)
# VH: B1 VH with N61A, E62Q, K65Q, S66G, T93V
# VL: B1 VL
# B6: FW1_var14 antibody (antibody, V domains shown)
# VH: B1 VH with N61A, E62Q, K65Q, S66G
# VL: B1 VL with K45R
# B7: FW2_var2 antibody (antibody, V domains shown)
# VH: B1 VH with A16S, N61A, E62Q, K65Q, S66G, T74K, T93V
# VL: B1 VL with V11L, A43I, F83V
# B8: FW1_var10 antibody (antibody, V domains shown)
# VH: B1 VH with N61A, E62Q, K65Q, S66G
# VL: B1 VL
# B9: FW1-var9-mFR-L2 + L3 (antibody, V domains shown)
# VH: B1 VH with N61A, E62Q, K65Q, S66G, T93V
# VL: B1 VL with K42N, A43I, F83I
# B10: FW1-var9-mFR-H2 (antibody, V domains shown)
# VH: B1 VH with R38K, A40R, M48I, N61A, E62Q, K65Q, S66G, T93V
# VL: B1 VL
# B11: FW1-var9-mFR-H1 (antibody, V domains shown)
# VH: QIQLQQPGAELVKPGASVKLSCKAPGYTFTSYWMHWVRQAPGQGLEWMGETNPSNSVTNYAQKFQGRVTLTVDTSTSTAYMELSSLRSEDTAVYYCTIGRGRGFAYWGQGTLVTVSS
# VL: B1 VL
# B12: FW1-var9-mFR-H3 (antibody, V domains shown)
# VH: QVQLVQSGAEVKKPGASVKVSCKASGYTFTSYWMHWVRQAPGQGLEWMGETNPSNSVTNYAQKFQGRVTLTVDKSSSTAYMQLSSLTSEDSAVYYCTIGRGRGFAYWGQGTLVTVSA
# VL: B1 VL
# B13: FW1-var9-mFR-L1 (antibody, V domains shown)
# VH: B1 VH with N61A, E62Q, K65Q, S66G, T93V
# VL: B1 VL with T5N, V11L, V15L, R18T, V19I
# B14: FW1_var9-hH3a (antibody, V domains shown)
# VH: B11 VH with I2V, Q5V, L11V, V12K, L20V, P25S
# VL: B1 VL
# B15: FW1_var9-hH5a (antibody, V domains shown)
# VH: B11 VH with I2V, Q5V, P7S, L11V, L20V, P25S
# VL: B1 VL
# B16: FW1_var9-hH6a (antibody, V domains shown)
# VH: B11 VH with I2V, Q5V, P7S, L11V, V12K, P25S
# VL: B1 VL
# B17: FW1_var9-hH7a (antibody, V domains shown)
# VH: B11 VH with I2V, Q5V, P7S, L11V, V12K, L20V
# VL: B1 VL
# B18: FW1_var9-hH4a (antibody, V domains shown)
# VH: B11 VH with I2V, Q5V, P7S, V12K, L20V, P25S
# VL: B1 VL
# B19: FW1_var9-hH2a (antibody, V domains shown)
# VH: B11 VH with I2V, P7S, L11V, V12K, L20V, P25S
# VL: B1 VL
# B20: FW1_var9-hH1a (antibody, V domains shown)
# VH: B11 VH with Q5V, P7S, L11V, V12K, L20V, P25S
# VL: B1 VL
# B21: IGF11-16 with alanine substitution of F at position 64 (CDR-H2) (antibody, mouse IgG1, V domains shown)
# VH: B4 VH with F64A
# VL: B1 VL with T5N, V11L, V15L, R18T, V19I, Y36C, K42N, A43I, F83I
# B22: IGF11-16 with alanine substitution of N at position 59 (CDR-H2) (antibody, mouse IgG1, V domains shown)
# VH: B4 VH with N59A
# VL: B1 VL with T5N, V11L, V15L, R18T, V19I, Y36C, K42N, A43I, F83I
# B23: IGF11-16 with alanine substitution of S at position 56 (CDR-H2) (antibody, mouse IgG1, V domains shown)
# VH: B4 VH with S56A
# VL: B1 VL with T5N, V11L, V15L, R18T, V19I, Y36C, K42N, A43I, F83I
# B24: IGF11-16 with alanine substitution of W at position 33 (CDR-H1) (antibody, mouse IgG1, V domains shown)
# VH: B4 VH with W33A
# VL: B1 VL with T5N, V11L, V15L, R18T, V19I, Y36C, K42N, A43I, F83I
# B25: IGF11-16 with alanine substitution of R at position 102 (CDR-H3) (antibody, mouse IgG1, V domains shown)
# VH: B4 VH with R102A
# VL: B1 VL with T5N, V11L, V15L, R18T, V19I, Y36C, K42N, A43I, F83I
# B26: IGF11-16 with alanine substitution of N at position 55 (CDR-H2) (antibody, mouse IgG1, V domains shown)
# VH: B4 VH with N55A
# VL: B1 VL with T5N, V11L, V15L, R18T, V19I, Y36C, K42N, A43I, F83I
# B27: IGF11-16 with alanine substitution of S at position 54 (CDR-H2) (antibody, mouse IgG1, V domains shown)
# VH: B4 VH with S54A
# VL: B1 VL with T5N, V11L, V15L, R18T, V19I, Y36C, K42N, A43I, F83I
# B28: IGF11-16 with alanine substitution of N at position 52 (CDR-H2) (antibody, mouse IgG1, V domains shown)
# VH: B4 VH with N52A
# VL: B1 VL with T5N, V11L, V15L, R18T, V19I, Y36C, K42N, A43I, F83I
# B29: IGF11-16 with alanine substitution of H at position 35 (CDR-H1) (antibody, mouse IgG1, V domains shown)
# VH: B4 VH with H35A
# VL: B1 VL with T5N, V11L, V15L, R18T, V19I, Y36C, K42N, A43I, F83I
# Biological target: T1, IGF-1 receptor on the cells of the PathHunter IGF1R Functional Assay (DiscoverX) (UniProt P08069 31-1367)
# T1 sequence (P08069 31-1367): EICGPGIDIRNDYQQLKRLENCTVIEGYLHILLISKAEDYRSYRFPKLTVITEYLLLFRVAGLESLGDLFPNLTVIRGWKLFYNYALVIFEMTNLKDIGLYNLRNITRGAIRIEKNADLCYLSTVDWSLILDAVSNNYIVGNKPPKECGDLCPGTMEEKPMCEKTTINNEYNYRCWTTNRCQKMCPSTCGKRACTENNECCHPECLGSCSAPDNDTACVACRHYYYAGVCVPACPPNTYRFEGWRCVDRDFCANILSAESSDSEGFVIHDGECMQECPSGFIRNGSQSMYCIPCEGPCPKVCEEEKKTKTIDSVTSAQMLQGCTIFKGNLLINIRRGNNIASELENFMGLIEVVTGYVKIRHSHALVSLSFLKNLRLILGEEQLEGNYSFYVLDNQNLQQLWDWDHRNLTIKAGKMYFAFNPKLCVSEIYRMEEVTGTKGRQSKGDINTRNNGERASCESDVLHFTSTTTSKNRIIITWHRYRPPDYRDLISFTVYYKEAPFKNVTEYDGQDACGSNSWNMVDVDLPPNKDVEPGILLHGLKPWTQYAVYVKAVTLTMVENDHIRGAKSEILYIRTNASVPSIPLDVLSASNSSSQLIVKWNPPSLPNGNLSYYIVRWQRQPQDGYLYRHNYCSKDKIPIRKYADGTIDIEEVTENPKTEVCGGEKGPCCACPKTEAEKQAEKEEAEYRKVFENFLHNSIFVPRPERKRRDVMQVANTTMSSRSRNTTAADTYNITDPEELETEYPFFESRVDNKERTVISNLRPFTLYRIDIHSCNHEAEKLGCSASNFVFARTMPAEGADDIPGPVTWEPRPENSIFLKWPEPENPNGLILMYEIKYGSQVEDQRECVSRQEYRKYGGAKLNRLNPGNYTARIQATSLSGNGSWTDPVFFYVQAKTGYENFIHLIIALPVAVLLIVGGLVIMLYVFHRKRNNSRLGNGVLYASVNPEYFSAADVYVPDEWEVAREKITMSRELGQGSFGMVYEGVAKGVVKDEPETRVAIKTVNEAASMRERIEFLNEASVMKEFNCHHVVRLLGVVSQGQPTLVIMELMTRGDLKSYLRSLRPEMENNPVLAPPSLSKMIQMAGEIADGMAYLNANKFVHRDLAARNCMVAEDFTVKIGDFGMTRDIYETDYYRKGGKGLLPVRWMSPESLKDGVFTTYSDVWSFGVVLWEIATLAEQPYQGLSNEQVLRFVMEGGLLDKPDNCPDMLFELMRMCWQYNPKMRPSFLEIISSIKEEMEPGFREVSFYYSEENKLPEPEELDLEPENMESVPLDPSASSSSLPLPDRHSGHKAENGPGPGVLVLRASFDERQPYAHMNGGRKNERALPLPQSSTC
# Assay: cell-based or functional assay
Binder,"Activation intensity (RLU), PathHunter [RLU]","Fluorescence intensity (0.1 nM) (RLU), PathHunter [RLU]","Fluorescence intensity (12.5 nM) (RLU), PathHunter [RLU]","Ratio of activation intensity, PathHunter"
B1,1960,223,2190,0.55 relative to IGF11-16
B2,1740,221,1960,0.49 relative to IGF11-16
B3,2270,209,2480,0.64 relative to IGF11-16
B4,3570,230,3800,1 relative to IGF11-16

# Biological target: T1, IGF-1 receptor on the cells of the …
# Assay: cell-based or functional assay
# Remark: another data set of the same source
Binder,"Activation intensity (RLU), PathHunter [RLU]","Fluorescence intensity (0.1 nM) (RLU), PathHunter [RLU]","Fluorescence intensity (12.5 nM) (RLU), PathHunter [RLU]","Ratio of activation intensity, PathHunter"
B5,1450,591,2040,0.67 relative to IGF11-16
B3,1600,555,2160,0.74 relative to IGF11-16
B6,1340,558,1900,0.62 relative to IGF11-16
B7,1320,572,1890,0.61 relative to IGF11-16
B8,1350,516,1860,0.62 relative to IGF11-16
B4,2180,557,2730,1 relative to IGF11-16

# Biological target: T1, IGF-1 receptor on the cells of the …
# Assay: cell-based or functional assay
# Remark: another data set of the same source
row,Binder,"Signal intensity (ratio to IGF11-16) at 16.7 nM, PathHunter"
1,B9,0.5 ratio to human chimeric IGF11-16
2,B10,0.51 ratio to human chimeric IGF11-16
3,B11,1.08 ratio to human chimeric IGF11-16
4,B12,0.7 ratio to human chimeric IGF11-16
5,B13,0.51 ratio to human chimeric IGF11-16

# Biological target: T1, IGF-1 receptor on the cells of the …
# Assay: cell-based or functional assay
# Remark: another data set of the same source
row,Binder,"Signal intensity ratio (compared to IGF11-16) at 16.7 nM, PathHunter"
1,B14,0.6 ratio to IGF11-16
2,B15,0.56 ratio to IGF11-16
3,B16,0.55 ratio to IGF11-16
4,B17,1.09 ratio to IGF11-16
5,B3,0.66 ratio to IGF11-16
6,B18,0.65 ratio to IGF11-16
7,B19,0.54 ratio to IGF11-16
8,B20,0.7 ratio to IGF11-16
9,B4,1 ratio to IGF11-16

# Biological target: T1, IGF-1 receptor on the cells of the …
# Assay: cell-based or functional assay
# Remark: another data set of the same source
Binder,"Signal activation EC50 vs IGF11-16, PathHunter [ratio vs IGF11-16]","Signal activation Emax vs IGF11-16, PathHunter [ratio vs IGF11-16]"
B21,2.4,0.9
B22,2.3,0.9
B23,2.9,1.1
B24,0.5,0
B25,54.4,4.8
B26,3,1
B27,2.5,1
B28,2.7,0
B29,2.2,1
